# Source: US20240391954A1, “MC4R AGONIST PEPTIDES” (The Regents of the University of Michigan, priority 2021, published 2024)
# Like-named read-outs stand apart in the source and are kept apart here. Positions of bridges follow the written chain, without caps; N, C: chain ends. Non-standard residues stand in square brackets, D forms with d. Residues, ends and D or L forms follow the SMILES beside them. dPhe(4-Br) = N[C@H](Cc1ccc(Br)cc1)C(=O)O
# B1: CTX-1258 (peptide)
# peptide: Ac-RC[dA]R[dPhe(4-Br)]RFC-NH2
# modifications: disulfide 2-8
# SMILES: CC(=O)N[C@@H](CCCNC(=N)N)C(=O)N[C@H]1CSSC[C@@H](C(N)=O)NC(=O)[C@H](Cc2ccccc2)NC(=O)[C@H](CCCNC(=N)N)NC(=O)[C@@H](Cc2ccc(Br)cc2)NC(=O)[C@H](CCCNC(=N)N)NC(=O)[C@@H](C)NC1=O
# Columns and labels:
# [1] = biological target: T1, human MC4R receptor (human, UniProt P32245 1-332); assay: cell-based or functional assay
# [2] = biological target: plasma protein; assay: plasma ultrafiltration (Centrifree), LC-MS/MS; peptide 0.1 uM
# [3] = biological target: plasma protein; assay: plasma ultrafiltration (Centrifree), LC-MS/MS; peptide 1.0 uM
# [4] = biological target: plasma protein; assay: plasma ultrafiltration (Centrifree), LC-MS/MS; peptide 10.0 uM
# [5] = biological target: T2, human MC3R (Homo sapiens, UniProt P41968); assay: split-luciferase cAMP sensor assay, agonist mode (measurement window 1), hMC3R; format: cell-based; details: agonist mode, hMC3R stable cell line; for Emax: read-out: MC3R cAMP % max activation
# T2 construct: expressed in transfected cells; host or cells: HEK-293 cells stably expressing the GScAMP22F split-luciferase cAMP sensor (parent reporter line from Promega); MC3R clone generated in-house, G418 selection
# How it was run: (§1)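 EC50 values come from a four-parameter variable-slope fit of luminescence in measurement window 1, capturing direct peptide effects on receptor-expressing cells with a cAMP22f luciferase sensor. Cells were preloaded with 4% D-luciferin, serum-free medium; 20 μM forskolin normalized for cell number and transducer efficiency.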
# [6] = biological target: T3, human MC4R (Homo sapiens, UniProt P32245); assay: split-luciferase cAMP sensor assay, agonist mode (measurement window 1), hMC4R; format: cell-based; details: for Emax: read-out: MC4R cAMP % max activation
# T3 construct: host or cells: HEK-293 cells stably expressing the GScAMP22F split-luciferase cAMP sensor and hMC4R, G418 selection
# How it was run: as §1
# [7] = biological target: T2, human MC3R; assay: split-luciferase cAMP sensor assay, antagonist mode in presence of EC90 α-MSH (measurement window 2), hMC3R; format: cell-based; details: agonist curves and antagonist curves in presence of EC80 to EC90 α-MSH
# Protocol: FIG. 2. […] Concentration-response agonist curves for CTX-2205 and CTX-1214 at the human MC3R (blue) and human MC4R (red) were determined by a split-luciferase cAMP sensor dynamic assay in HEK-293 cells stably expressing the hMC3R or hMC4R and the GScAMP22F CAMP sensor. The antagonist curves were determined in the presence of an EC80 to EC90 concentration of α-MSH. Each data point represents the mean±SEM of two experiments with three replicates each per experiment. Data is normalized to the ECmax of α-MSH.
# The assay for the determination of the cAMP response in live cells was described previously. (Yu et al., 2020, Science 368, 428-433; incorporated by reference in its entirety). […] Intracellular cAMP levels were measured using an FDSS 7000EX Functional Drug Screening System (Hamamatsu Photonics, Hamamatsu, Japan) in the Center for Chemical Genomics at the Life Sciences Institute. This instrument allowed the in-line addition of test-peptides and receptor agonists while simultaneously acquiring the luminescence signal from live cells. […]
# With this set up it was possible to evaluate the direct effect of the test-peptides on the MC3R and MC4R cell lines during measurement window 1, while the antagonist profile in the presence of EC90 α-MSH was determined on measurement window 2. […]
# [8] = biological target: human MC3R (human, UniProt P41968 1-323); assay: cell-based or functional assay
# [9] = biological target: T1, human MC4R receptor; assay: cell-based or functional assay; remark: listed apart in the source
# [10] = biological target: T1, human MC4R receptor; assay: cell-based or functional assay; remark: listed apart in the source
# [11] = agonist mode, hMC4R stable cell line
# T2 sequence (P41968 whole entry): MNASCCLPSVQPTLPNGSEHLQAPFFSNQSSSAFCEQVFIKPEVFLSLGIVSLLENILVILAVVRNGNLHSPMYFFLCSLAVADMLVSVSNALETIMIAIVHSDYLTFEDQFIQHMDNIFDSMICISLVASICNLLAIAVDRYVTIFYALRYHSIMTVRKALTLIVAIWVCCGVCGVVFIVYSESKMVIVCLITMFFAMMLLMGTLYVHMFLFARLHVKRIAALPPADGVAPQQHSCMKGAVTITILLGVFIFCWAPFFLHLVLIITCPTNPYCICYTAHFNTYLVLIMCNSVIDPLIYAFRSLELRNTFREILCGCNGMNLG
# T1 sequence (P32245 whole entry): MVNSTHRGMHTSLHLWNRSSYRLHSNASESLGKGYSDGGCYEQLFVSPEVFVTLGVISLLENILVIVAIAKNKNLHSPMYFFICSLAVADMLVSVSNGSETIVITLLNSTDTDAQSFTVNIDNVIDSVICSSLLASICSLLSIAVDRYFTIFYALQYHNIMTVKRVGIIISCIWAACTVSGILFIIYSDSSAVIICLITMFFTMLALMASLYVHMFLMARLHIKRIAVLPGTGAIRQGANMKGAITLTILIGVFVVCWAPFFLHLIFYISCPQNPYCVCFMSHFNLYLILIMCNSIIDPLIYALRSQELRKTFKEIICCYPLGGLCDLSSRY
# T3 sequence (P32245 whole entry): as above
# human MC3R (human, UniProt P41968 1-323), sequence (P41968 whole entry): as the sequence (P41968 whole entry) above
Molecule,Protein Binding (%) [2] [%],Protein Binding (%) [3] [%],Protein Binding (%) [4] [%],Emax [5] [%],MC4R selectivity vs MC3R [6],"Emax [6, 11] [%]",pharmacological properties at hMC4R and hMC3R [7],other results
CTX-1200 (setmelanotide) (peptide),43,57,61,–,–,–,–,MC4R selectivity vs MC1R [1]: 0.69; MC4R selectivity vs MC3R [1]: 4.09
"CC(=O)N[C@@H](CCCNC(=N)N)C(=O)N[C@H]1CSSC[C@@H](C(N)=O)NC(=O)[C@H](Cc2c[nH]c3ccccc23)NC(=O)[C@H](CCCNC(=N)N)NC(=O)[C@@H](Cc2ccc(Br)cc2)NC(=O)[C@H](CCCNC(=N)N)NC(=O)[C@@H](C)NC1=O [CTX-2205, Arg-cyclo(Cys-D-Ala-Arg-D-Phe(4-Br)-Arg-Trp-Cys)] (Ac-RC[dA]R[dPhe(4-Br)]RWC-NH2; disulfide 2-8)",–,–,–,13,2.12,88,"dual MC4R agonist, MC3R antagonist properties",MC4R selectivity vs MC1R [6]: 0.2
"CC(=O)N[C@@H](CCCNC(=N)N)C(=O)N[C@H]1CSSC[C@@H](C(N)=O)NC(=O)[C@@H](Cc2c[nH]c3ccccc23)NC(=O)[C@H](CCCNC(=N)N)NC(=O)[C@@H](Cc2ccc(Br)cc2)NC(=O)[C@H](CCCNC(=N)N)NC(=O)[C@@H](C)NC1=O [CTX-1214, Arg-cyclo(Cys-D-Ala-Arg-D-Phe(4-Br)-Arg-D-Trp-Cys)] (Ac-RC[dA]R[dPhe(4-Br)]R[dW]C-NH2; disulfide 2-8 (inferred))",–,–,–,15,0.2,74,"dual MC4R agonist, MC3R antagonist properties","EC50 ([5]; read-out: MC3R cAMP EC50): 4.1 nM; EC50 ([6]; agonist mode, hMC4R stable cell line, read-out: MC4R cAMP EC50): 2.6 nM"
B1,47,50,50,–,–,–,–,% max activation [8]: 36%; cAMP EC50 [8]: 7.4 nM; % max activation [9]: 92%; cAMP EC50 [9]: 2.4 nM; MC4R selectivity vs MC1R [10]: 0.53; MC4R selectivity vs MC3R [10]: 3.04
